The assay has as its target T1, GST-SH3^SGEF (amino acids 789–850) (UniProt Q96DR7 789-850).
T1 sequence (looked up): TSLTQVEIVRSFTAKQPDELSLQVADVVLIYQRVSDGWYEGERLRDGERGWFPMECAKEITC
Nature of the assay: pull-down.

B1: ICAM1–intracellular tail peptide, biotinylated (peptide)
peptide: GRQRKIKKYRLQQAQKGTPMKPNTQATPP
HELM: PEPTIDE1{[O=C1N[C@H]2[C@H](CS[C@H]2CCCCC(=O)[*:2])N1].G.R.Q.R.K.I.K.K.Y.R.L.Q.Q.A.Q.K.G.T.P.M.K.P.N.T.Q.A.T.P.P}$$$$V2.0
SMILES: CC[C@H](C)[C@H](NC(=O)[C@H](CCCCN)NC(=O)[C@H](CCCNC(=N)N)NC(=O)[C@H](CCC(N)=O)NC(=O)[C@H](CCCNC(=N)N)NC(=O)CNC(=O)CCCC[C@@H]1SC[C@@H]2NC(=O)N[C@@H]21)C(=O)N[C@@H](CCCCN)C(=O)N[C@@H](CCCCN)C(=O)N[C@@H](Cc1ccc(O)cc1)C(=O)N[C@@H](CCCNC(=N)N)C(=O)N[C@@H](CC(C)C)C(=O)N[C@@H](CCC(N)=O)C(=O)N[C@@H](CCC(N)=O)C(=O)N[C@@H](C)C(=O)N[C@@H](CCC(N)=O)C(=O)N[C@@H](CCCCN)C(=O)NCC(=O)N[C@H](C(=O)N1CCC[C@H]1C(=O)N[C@@H](CCSC)C(=O)N[C@@H](CCCCN)C(=O)N1CCC[C@H]1C(=O)N[C@@H](CC(N)=O)C(=O)N[C@H](C(=O)N[C@@H](CCC(N)=O)C(=O)N[C@@H](C)C(=O)N[C@H](C(=O)N1CCC[C@H]1C(=O)N1CCC[C@H]1C(=O)O)[C@@H](C)O)[C@@H](C)O)[C@@H](C)O
As to B1, the binding result is reported as “binds”.

For the origin of these results see paper PMC2064659 (The Journal of Cell Biology, 2007).
